Assay results: publication PMC7437355
Blank lines part the entries; values can stand above or below the binder they belong to.

How the values were obtained:
[1] = biological target: T1, SPRED1(EVH1), SPRED1(13–125), wild type (ITC), Q7Z699; assay: ITC; conditions: chain shown with the change
T1 chain: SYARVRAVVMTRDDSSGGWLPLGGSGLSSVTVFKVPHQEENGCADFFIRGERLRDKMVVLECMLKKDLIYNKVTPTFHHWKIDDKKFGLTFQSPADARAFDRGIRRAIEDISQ

[2] = biological target: T2, NF1(GRD), neurofibromin GAP-related domain, wild type (ITC), P21359-2; assay: ITC; conditions: chain shown with the change
T2 chain: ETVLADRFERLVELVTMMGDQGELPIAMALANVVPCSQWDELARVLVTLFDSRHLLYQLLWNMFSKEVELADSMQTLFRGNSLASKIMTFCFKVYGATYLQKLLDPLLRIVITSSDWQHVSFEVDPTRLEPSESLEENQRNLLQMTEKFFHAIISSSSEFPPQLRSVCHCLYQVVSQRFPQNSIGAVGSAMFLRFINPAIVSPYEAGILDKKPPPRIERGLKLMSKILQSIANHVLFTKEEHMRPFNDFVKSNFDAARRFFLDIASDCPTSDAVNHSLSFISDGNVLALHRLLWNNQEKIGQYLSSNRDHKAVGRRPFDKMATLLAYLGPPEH

[3] = biological target: NF1(GRD), neurofibromin GAP-related domain, wild type (ITC) (human) (UniProt P21359); assay: ITC; MicroCal PEAQ-ITC, 25°C, 19 injections of 2.2 μL; 20 mM HEPES (pH 7.3), 150 mM NaCl, 5 mM MgCl2, 1 mM TCEP; one set of sites model; protein in the cell not given
NF1(GRD) D1217A (human) = NF1(GRD) D1217A (human) (UniProt P21359); assay: as above
NF1(GRD) R1250A (human) = NF1(GRD) R1250A (human) (UniProt P21359); assay: as above

- Kd [2]: 4 µM
B3: SPRED1(EVH1), SPRED1(13–125), wild type (ITC), Q7Z699 R24Q (protein)
chain: SYARVRAVVMTQDDSSGGWLPLGGSGLSSVTVFKVPHQEENGCADFFIRGERLRDKMVVLECMLKKDLIYNKVTPTFHHWKIDDKKFGLTFQSPADARAFDRGIRRAIEDISQ

- fold weaker affinity than wild-type SPRED1 [3]: 10 fold
B6: SPRED1(13–125) S105D, purified phosphomimetic (domain or fragment)
chain: SYARVRAVVMTRDDSSGGWLPLGGSGLSSVTVFKVPHQEENGCADFFIRGERLRDKMVVLECMLKKDLIYNKVTPTFHHWKIDDKKFGLTFQDPADARAFDRGIRRAIEDISQ

- Kd [2]: 33.7 µM
B7: SPRED1(EVH1), SPRED1(13–125), wild type (ITC), Q7Z699 G30R (protein)
chain: SYARVRAVVMTRDDSSGRWLPLGGSGLSSVTVFKVPHQEENGCADFFIRGERLRDKMVVLECMLKKDLIYNKVTPTFHHWKIDDKKFGLTFQSPADARAFDRGIRRAIEDISQ

- fold weaker affinity than wild-type NF1(GRD) (NF1(GRD) D1217A (human)): > 50 fold
- Kd [3]: 0.224 µM
- fold reduced binding against wild-type NF1(GRD) (NF1(GRD) R1250A (human)): 5 fold
B8: SPRED1(EVH1), SPRED1(13–125), wild type (ITC) (domain or fragment)
chain: SYARVRAVVMTRDDSSGGWLPLGGSGLSSVTVFKVPHQEENGCADFFIRGERLRDKMVVLECMLKKDLIYNKVTPTFHHWKIDDKKFGLTFQSPADARAFDRGIRRAIEDISQ

The remaining lines, values behind:

B1: NF1(GRD), neurofibromin GAP-related domain, wild type (ITC), P21359-2 D1217A (protein)
chain: ETVLADRFERLVELVTMMGAQGELPIAMALANVVPCSQWDELARVLVTLFDSRHLLYQLLWNMFSKEVELADSMQTLFRGNSLASKIMTFCFKVYGATYLQKLLDPLLRIVITSSDWQHVSFEVDPTRLEPSESLEENQRNLLQMTEKFFHAIISSSSEFPPQLRSVCHCLYQVVSQRFPQNSIGAVGSAMFLRFINPAIVSPYEAGILDKKPPPRIERGLKLMSKILQSIANHVLFTKEEHMRPFNDFVKSNFDAARRFFLDIASDCPTSDAVNHSLSFISDGNVLALHRLLWNNQEKIGQYLSSNRDHKAVGRRPFDKMATLLAYLGPPEH
- Kd [1]: 14 µM

B2: NF1(GRD), neurofibromin GAP-related domain, wild type (ITC), P21359-2 R1250A (protein)
chain: ETVLADRFERLVELVTMMGDQGELPIAMALANVVPCSQWDELARVLVTLFDSAHLLYQLLWNMFSKEVELADSMQTLFRGNSLASKIMTFCFKVYGATYLQKLLDPLLRIVITSSDWQHVSFEVDPTRLEPSESLEENQRNLLQMTEKFFHAIISSSSEFPPQLRSVCHCLYQVVSQRFPQNSIGAVGSAMFLRFINPAIVSPYEAGILDKKPPPRIERGLKLMSKILQSIANHVLFTKEEHMRPFNDFVKSNFDAARRFFLDIASDCPTSDAVNHSLSFISDGNVLALHRLLWNNQEKIGQYLSSNRDHKAVGRRPFDKMATLLAYLGPPEH
- Kd [1]: 1.08 µM

B4: SPRED1(13–125) G30R (domain or fragment)
chain: SYARVRAVVMTRDDSSGRWLPLGGSGLSSVTVFKVPHQEENGCADFFIRGERLRDKMVVLECMLKKDLIYNKVTPTFHHWKIDDKKFGLTFQSPADARAFDRGIRRAIEDISQ
- fold weaker binding than wild-type SPRED1 (printed as decrease in KD) [3]: > 100 fold

B5: SPRED1(13–125) R24Q (domain or fragment)
chain: SYARVRAVVMTQDDSSGGWLPLGGSGLSSVTVFKVPHQEENGCADFFIRGERLRDKMVVLECMLKKDLIYNKVTPTFHHWKIDDKKFGLTFQSPADARAFDRGIRRAIEDISQ
- fold weaker binding than wild-type SPRED1 [3]: 20 fold
